Assay results reported in patent US20150299285A1 (INDIANA UNIVERSITY RESEARCH AND TECHNOLOGY, published 2015).
“And” between values parts separate entries of the source, which are not always exact repeats. Equal entries are not always repeated. Bridges are numbered along the chain shown (N, C = ends). Roman numbers before positions name the chains, in order. Where no end group is shown, it is not given here. [ ]: non-standard residue; d: D form. Phe(4-NH2) = Nc1ccc(C[C@H](N)C(=O)O)cc1

B1: MIU-69: B0, A14-PEG10K di-PEGylated B^1(H5,Y16,L17)25-C^1(K8)-A^1(K14, N18,21) (ligand)
chain: {PEG 10 kDa}-GPEHLCGAELVDALYLVCGDRGFYGYGSSSRKAPQTGIVDECCFRSCDLK(PEG 10 kDa)RLENYCN
modifications: disulfide 18-56, 42-47, 6-43
B2: MIU-35: B^1(H5, H10, Y16, L17)25-C^1-A^1 (H8, N18, N21) (ligand)
chain: GPEHLCGAHLVDALYLVCGDRGFYGYGSSSRRAPQTGIVDECCHRSCDLRRLENYCN
B3: MIU-68: B0, B22-PEG10K di-PEGylated B^1(H5,Y16,L17, K22)25-C^1(K8)-A^1(N18,21) (ligand)
chain: {PEG 10 kDa}-GPEHLCGAELVDALYLVCGDK(PEG 10 kDa)GFYGYGSSSRKAPQTGIVDECCFRSCDLRRLENYCN
modifications: disulfide 18-56, 42-47, 6-43
B4: MIU-57: B1-PEG20K B^1(H5,Y16,L17)25-C^1-A^1(N18,21) (ligand)
chain: {PEG 20 kDa}-GPEHLCGAELVDALYLVCGDRGFYGYGSSSRRAPQTGIVDECCFRSCDLRRLENYCN
modifications: disulfide 18-56, 42-47, 6-43
B5: MIU-58: B1-PEG20K-B1- Dimer (ligand)
chain: {PEG 20 kDa}-GPEHLCGAELVDALYLVCGDRGFYGYGSSSRRAPQTGIVDECCFRSCDLRRLENYCN
modifications: disulfide 18-56, 42-47, 6-43; also: dimer: two chains linked head to head via 20 kDa PEG
B6: MIU-67: B0, C8-PEG10K di-PEGylated B^1(H5,Y16,L17)25-C^1(K8)-A^1(N18,21) (ligand)
chain: {PEG 10 kDa}-GPEHLCGAELVDALYLVCGDRGFYGYGSSSRK(PEG 10 kDa)APQTGIVDECCFRSCDLRRLENYCN
modifications: disulfide 18-56, 42-47, 6-43
B7: IGF1(Y^B16L^B17) (ligand)
chain 1: GIVDECCFRSCDLRRLEMYCA
chain 2: GPETLCGAELVDALYLVCGDRGFYFNKPT
notes: Two chain heteroduplex; may be the same molecule as m22; also called IGF1 (Y^B16L^B17) analog; IGF1 A:B(Y^B16L^B17)
B8: IGF-1 A:B(D10Y16L17) DPI A-COOH (ligand)
chain 1: GIVDECCFRSCDLRRLEMYCA-OH
chain 2: GPETLCGADLVDALYLVCGDRGFY-NH2
modifications: disulfide I:6-I:11, I:20-II:18, I:7-II:6
B9: IGF-1 A:B(E10Y16L17) (ligand)
chain 1: GIVDECCFRSCDLRRLEMYCA
chain 2: GPETLCGAELVDALYLVCGDRGFYFNKPT
modifications: disulfide I:6-I:11, I:20-II:18, I:7-II:6; not fully specified (C-terminus)
B10: IGF-1 A:B (H5D10Y16L17) DPI (ligand)
chain 1: GIVDECCFRSCDLRRLEMYCA-NH2
chain 2: GPEHLCGADLVDALYLVCGDRGFY-NH2
modifications: disulfide I:6-I:11, I:20-II:18, I:7-II:6
B11: IGF-1 A (H8 A9 N21):B(H5D10Y16L17 A22) DPI A-COOH (ligand)
chain 1: GIVDECCHASCDLRRLEMYCN
chain 2: GPEHLCGADLVDALYLVCGDAGFY
B12: IGF-1 A (H8 A9 N21):B(H5D10Y16L17) DPI A-COOH (ligand)
chain 1: GIVDECCHASCDLRRLEMYCN-OH
chain 2: GPEHLCGADLVDALYLVCGDRGFY-NH2
modifications: disulfide I:6-I:11, I:20-II:18, I:7-II:6
B13: DP20: GE5K-B chain-CTP(K)-A Chain (ligand)
chain: GEEEEEKGPEHLCGAHLVDALYLVCGDRGFYSSSSRAPPPSLPSPSRLPGPSDTPILPQKGIVDECCHRSCDLRRLENYCN
B14: DP22LysC (ligand)
chain 1: APPPSLPSPSRLPGPSDTPILPQEEEEERGPEHLCGAHLVDALYLVCGDRGFYSSSSRAPPPSLPSPSRLPGPSDTPILPQK
chain 2: GIVDECCHRSCDLRRLENYCN
B15: DP22: CTP-E5R-B chain-CTP(K)-A Chain (ligand)
chain: MGSSSSKAPPPSLPSPSRLPGPSDTPILPQEEEEERGPEHLCGAHLVDALYLVCGDRGFYSSSSRAPPPSLPSPSRLPGPSDTPILPQKGIVDECCHRSCDLRRLENYCN
B16: DP20 Lys C (two chain form of DP20) (ligand)
chain 1: GPEHLCGAHLVDALYLVCGDRGFYSSSSRAPPPSLPSPSRLPGPSDTPILPQK
chain 2: GIVDECCHRSCDLRRLENYCN
B17: IGF-1 A:B (E10Y16L17) DPI (ligand)
chain 1: GIVDECCFRSCDLRRLEMYCA-NH2
chain 2: GPETLCGAELVDALYLVCGDRGFY-NH2
modifications: disulfide I:6-I:11, I:20-II:18, I:7-II:6
B18: IGF-1 A:B(E10 Y16L17)-E31E32 B-COOH (ligand)
chain 1: GIVDECCFRSCDLRRLEMYCA-NH2
chain 2: GPETLCGAELVDALYLVCGDRGFYFNKPTEE-OH
modifications: disulfide I:6-I:11, I:20-II:18, I:7-II:6
B19: IGF-1 A:IGF-1 B(1-8)-In (9-17)-IGF-1 B(18-30) (ligand)
chain 1: GIVDECCFRSCDLRRLEMYCA-NH2
chain 2: GPETLCGSHLVEALYLVCGDRGFYFNKPT-NH2
modifications: disulfide I:6-I:11, I:20-II:18, I:7-II:6
B20: IGF-1 A:In (1-17)-IGF-1 B (18-30) (ligand)
chain 1: GIVDECCFRSCDLRRLEMYCA-NH2
chain 2: FVNQHLCGSHLVEALYLVCGDRGFYFNKPT-NH2
modifications: disulfide I:6-I:11, I:20-II:19, I:7-II:7
B21: IGF-1 A:In B(1-5)-IGF-1 B(YL)(6-30) (ligand)
chain 1: GIVDECCFRSCDLRRLEMYCA
chain 2: FVNQHLCGAELVDALYLVCGDRGFYFNKPT
modifications: not fully specified (bridges); cysteine pairing not given here; also: C-terminal amide, chain not given here
B22: IGF1(Y^B16L^B17)(AlaPro)^A-1,0 (ligand)
chain 1: APGIVDECCFRSCDLRRLEMYCA
chain 2: GPETLCGAELVDALYLVCGDRGFYFNKPT
B23: IGF1(Y^B16L^B17)(p-NH2-F)^A19amide (ligand)
chain 1: GIVDECCFRSCDLRRLEM[Phe(4-NH2)]CA
chain 2: GPETLCGAELVDALYLVCGDRGFYFNKPT
modifications: disulfide I:6-I:11, I:20-II:18, I:7-II:6; not fully specified (C-terminus); also: amide in name, site not given here
notes: also called IGF1 A:B(Y^B16L^B17)(p-NH2-F)^A19amide; IGF1 (Y^B16L^B17) A(p-NH2-F)^19
B24: IGF-1 A:B (ligand)
chain 1: GIVDECCFRSCDLRRLEMYCA-NH2
chain 2: GPETLCGAELVDALQFVCGDRGFYFNKPT-NH2
modifications: disulfide I:6-I:11, I:20-II:18, I:7-II:6
notes: also called IGF-1 A and B chain heteroduplex
B25: IGF-1 A:B (H5D10Y16L17) (S=O)DPI (ligand)
chain 1: GIVDECCFRSCDLRRLEMYCA-NH2
chain 2: GPEHLCGADLVDALYLVCGDRGFY-NH2
modifications: disulfide I:6-I:11, I:20-II:18, I:7-II:6; also: (S=O), residue not given here
notes: the only Met stands at A18
B26: IGF-2 AB(YL) (ligand)
chain 1: not shown
chain 2: AYRPSETLCGGELVDTLYLVCGDRGFYFSRPA
modifications: C-terminal amide

Biological target: T1, human IGF-1 receptor (human, UniProt P08069 31-1367)
Assay: cell-based or functional assay

Binder	% Insulin Activity (in vitro; assay not stated)
B1	< 0.1%
B2	3.2%
B3	< 0.1%
B4	1.2%
B5	2.6%
B6	< 0.1%

Biological target: T2, human insulin receptor (human, UniProt P06213 28-1382)
T2 construct: whole, on cells
Assay: competition with 125I-insulin, receptor membranes, SPA

Binder	IC50
B7	0.51 nM

Biological target: T2, human insulin receptor
Assay: cell-based or functional assay

Binder	% Insulin, total phosphorylation
B8	1580%
B9	49.2%

Biological target: T1, human IGF-1 receptor
Assay: cell-based or functional assay
Remark: another data set of the same source

Binder	% IGF, total phosphorylation
B10	7.1%
B8	112%
B11	7.7%
B12	181%
B9	13%

Biological target: T1, human IGF-1 receptor
Assay: cell-based or functional assay
Remark: another data set of the same source

Binder	EC50, phosphorylation (FIG. 18C)
B13	316 nM
B14	14.8 nM
B15	83.1 nM
B16	8.23 nM

Biological target: T1, human IGF-1 receptor
Assay: competition with 125I-IGF-1, receptor membranes, SPA

Binder	% IGF-1 (in test)	% native IGF-1 activity (0.55 nM)	IC50
B10	11.2%	11.8%	4.66 nM
B8	7.7%	8.1%	6.79 nM
B17	3.3%	2.4%	22.9 nM
B11	2.3%	2.4%	22.8 nM
B12	12.9%	13.6%	4.03 nM
B18	3%	3.1%	17.5 nM
B9			7.85 nM and 12.2 nM
B19	0.3%	0.4%	131 nM
B20	0.9%	0.9%	62.5 nM
B21	3.6%	2%	27.5 nM

Biological target: T2, human insulin receptor
Assay: competition with 125I-insulin, receptor membranes, SPA
Remark: another data set of the same source

Binder	IC50
B22	1.93 nM

Biological target: T2, human insulin receptor
Assay: as above
Remark: another data set of the same source

Binder	IC50
B23	1.08 nM

Biological target: T2, human insulin receptor
Assay: as above
Remark: another data set of the same source

Binder	% insulin (in test)	% native insulin activity (0.6 nM)	IC50
B24	5.8%	5.8%	10.4 nM
B10	479%		0.16 nM
B8			0.2 nM and 0.42 nM and 0.26 nM
B11			0.12 nM
B12			0.05 nM and 0.09 nM
B25	316%		0.25 nM
B26			6.81 nM
B9			0.66 nM and 0.51 nM
B19	19.1%	37.7%	1.59 nM
B20			2.77 nM and 2.67 nM and 2.48 nM
